From paper PMC4945140 (Molecular Biology of the Cell, 2016)

B1: Cdc11-capped septin hetero-octamers (Cdc11-Cdc12-Cdc3-Cdc10-Cdc10-Cdc3-Cdc12-Cdc11) (complex)
chain 1: MSGIIDASSALRKRKHLKRGITFTVMIVGQSGSGRSTFINTLCGQQVVDTSTTILLPTDTSTEIDLQLREETVELEDDEGVKIQLNIIDTPGFGDSLDNSPSFEIISDYIRHQYDEILLEESRVRRNPRFKDGRVHCCLYLINPTGHGLKEIDVEFIRQLGSLVNIIPVISKSDSLTRDELKLNKKLIMEDIDRWNLPIYNFPFDEDEISDEDYETNMYLRTLLPFAIIGSNEVYEMGGDVGTIRGRKYPWGILDVEDSSISDFVILRNALLISHLHDLKNYTHEILYERYRTEALSGESVAAESIRPNLTKLNGSSSSSTTTRRNTNPFKQSNNINNDVLNPASDMHGQSTGENNETYMTREEQIRLEEERLKAFEERVQQELLLKRQELLQREKELREIEARLEKEAKIKQEE
chain 2: MSAATATAAPVPPPVGISNLPNQRYKIVNEEGGTFTVMLCGESGLGKTTFINTLFQTVLKRADGQQHRQEPIRKTVEIDITRALLEEKHFELRVNVIDTPGFGDNVNNNKAWQPLVDFIDDQHDSYMRQEQQPYRTKKFDLRVHAVLYFIRPTGHGLKPIDIETMKRLSTRANLIPVIAKADTLTAQELQQFKSRIRQVIEAQEIRIFTPPLDADSKEDAKSGSNPDSAAVEHARQLIEAMPFAIVGSEKKFDNGQGTQVVARKYPWGLVEIENDSHCDFRKLRALLLRTYLLDLISTTQEMHYETYRRLRLEGHENTGEGNEDFTLPAIAPARKLSHNPRYKEEENALKKYFTDQVKAEEQRFRQWEQNIVNERIRLNGDLEEIQGKVKKLEEQVKSLQVKKSHLK
chain 3: MSLKEEQVSIKQDPEQEERQHDQFNDVQIKQESQDHDGVDSQYTNGTQNDDSERFEAAESDVKVEPGLGMGITSSQSEKGQVLPDQPEIKFIRRQINGYVGFANLPKQWHRRSIKNGFSFNLLCVGPDGIGKTTLMKTLFNNDDIEANLVKDYEEELANDQEEEEGQGEGHENQSQEQRHKVKIKSYESVIEENGVKLNLNVIDTEGFGDFLNNDQKSWDPIIKEIDSRFDQYLDAENKINRHSINDKRIHACLYFIEPTGHYLKPLDLKFMQSVYEKCNLIPVIAKSDILTDEEILSFKKTIMNQLIQSNIELFKPPIYSNDDAENSHLSERLFSSLPYAVIGSNDIVENYSGNQVRGRSYPWGVIEVDNDNHSDFNLLKNLLIKQFMEELKERTSKILYENYRSSKLAKLGIKQDNSVFKEFDPISKQQEEKTLHEAKLAKLEIEMKTVFQQKVSEKEKKLQKSETELFARHKEMKEKLTKQLKALEDKKKQLELSINSASPNVNHSPVPTKKKGFLR
chain 4: MDPLSSVQPASYVGFDTITNQIEHRLLKKGFQFNIMVVGQSGLGKSTLINTLFASHLIDSATGDDISALPVTKTTEMKISTHTLVEDRVRLNINVIDTPGFGDFIDNSKAWEPIVKYIKEQHSQYLRKELTAQRERFITDTRVHAILYFLQPNGKELSRLDVEALKRLTEIANVIPVIGKSDTLTLDERTEFRELIQNEFEKYNFKIYPYDSEELTDEELELNRSVRSIIPFAVVGSENEIEINGETFRGRKTRWSAINVEDINQCDFVYLREFLIRTHLQDLIETTSYIHYEGFRARQLIALKENANSRSSAHMSSNAIQR
B2: His6-MBP-Hsl1(611–950) fusion protein (domain or fragment)
chain: RETVHDNEMPLPQLPKSPSRYSLSRRAIHASPSTKSIHKSLSRKNIAATVAARRTLQNSASKRSLYSLQSISKRSLNLNDLLVFDDPLPSKKPASENVNKSEPHSLESDSDFEILCDQILFGNALDRILEEEEDNEKERDTQRQRQNDTKSSADTFTISGVSTNKENEGPEYPTKIEKNQFNMSYKPSENMSGLSSFPIFEKENTLSSSYLEEQKPKRAALSDITNSFNKMNKQEGMRIEKKIQREQLQKKNDRPSPLKPIQHQELRVNSLPNDQGKPSLSLDPRRNISQPVNSKVESLLQGLKFKKEPASHWTHERGSLFMSEHVEDEKPVKASDVSIE

Columns and labels:
co-sedimentation = biological target: the molecule itself; test: co-sedimentation
[1] = biological target: B1; test: co-sedimentation

Binder | binding result (co-sedimentation) | binding result [1]
B1 | binds | 
B2 |  | binds
